PMC10500460

Tests used:
AP2-μ2 (APμ2-HA) = AP2-μ2 (APμ2-HA) (UniProt P84092); test: biotin-peptide pull-down from lysate, Western blot; conditions: reference: unphosphorylated E7 13-28 peptide; sites T19,T20
PARD3 = PARD3 (UniProt Q8TEW0); test: biotin-peptide pull-down from lysate, Western blot; conditions: reference: unphosphorylated E7 13-28 peptide; sites T19,T20
PTPN13 = PTPN13 (UniProt Q12923); test: biotin-peptide pull-down from lysate, Western blot; conditions: reference: unphosphorylated E7 13-28 peptide; sites T19,T20
pRb = pRb (UniProt P06400); test: biotin-peptide pull-down from lysate, Western blot; conditions: reference: unphosphorylated E7 13-28 peptide; sites T19,T20
IQGAP1 = IQGAP1 (UniProt P46940); test: GST pull-down after in vitro phosphorylation; conditions: reference: GST-E7 not kinase-treated; sites T5,T7,T19,T20
PTPN14 = PTPN14 (UniProt Q15678); test: GST pull-down after in vitro phosphorylation; conditions: reference: GST-E7 not kinase-treated; sites T5,T7,T19,T20

Substance | binding against the reference (AP2-μ2 (APμ2-HA)) | binding against the reference (PARD3) | binding against the reference (PTPN13) | binding against the reference (pRb) | binding against the reference (IQGAP1) | binding against the reference (PTPN14)
HPV16 E7 13-28 (from UniProt P03129) pT19/pT20 E7 13-28 peptide | stronger | gained | gained | stronger | – | –
HPV16 E7 (from UniProt P03129) GST-E7 phosphorylated with CKI and GSK3 | – | – | – | – | stronger | same
